Test results as given in the RNAGym collection of RNA variant scans (doi:10.7554/elife.80360).

B1: Hammerhead Ribozyme (parent)
chain: ACCGGAUGUGCUUUCCGGUCUGAUGAGUCCGUGAGGACGAAACAG

Variants of: B1
Experiment: self-cleavage, relative activity (ratio to wild type); higher = more cleavage; co-transcriptional

| Variant | self-cleavage |
| --- | --- |
| ACCGGAUGUGCUUUCCGGUCUGAUGAGUCCGUGAGGGCGAGACAG | 0.268 |
| ACCGCAUGUGCUUUCCGGUCUGAUGAGUCCGUUAGGACGAAACAG | 0.736 |
| ACCGGAUGUGCUUUCCGGUCUGAUGAGUCCAAGAGGACGAAACAG | 1.06 |
| ACCGGAUGUGGUUUCCGGUCUGAUGAGUCCAUGAGGACGAAACAG | 1.03 |
| ACCGGACGUGCUUUCCGGUCUGAUGAGUCCGUAAGGACGAAACAG | 1.15 |
| ACCGGAUGUGCUUUCCGGUUUGAUGAGUCCGUGAGGAAGAAACAG | 0.336 |
| ACCGGAUGCGCUUUGCGGUCUGAUGAGUCCGUGAGGACGAAACAG | 0.49 |
| ACCGGAUGUGAGUUCCGGUCUGAUGAGUCCGUGAGGACGAAACAG | 1.61 |
| CCCGGAUGUGCUUACCGGUCUGAUGAGUCCGUGAGGACGAAACAG | 0.348 |
| ACCGGAUGUGCUAUCCGGUCUGAGGAGUCCGUGAGGACGAAACAG | 1.99 |
| ACCGGAUUUGCUUUCCGGUCUGAUGAGUCCGUGAGGUCGAAACAG | 0.774 |
| ACCUGAUGUGCUUUCCGGUCAGAUGAGUCCGUGAGGACGAAACAG | 0.342 |
| ACCGGAUGUGCUUUCCGGUCUGAUGAGUCCGUGAGGACUAUACAG | 0.326 |
| AUCGGAUGUGCUUUCCGGUCUGAUGAGUCCGUGAGGAAGAAACAG | 0.854 |
| ACCGGAUCUGCUUACCGGUCUGAUGAGUCCGUGAGGACGAAACAG | 1.08 |
| AUCGGAUGUGCUUUCCGGUCUCAUGAGUCCGUGAGGACGAAACAG | 0.323 |
| ACCGGAUGUGCUUUCCUGUCUGAUCAGUCCGUGAGGACGAAACAG | 0.319 |
| ACAGGAUGUGCUUGCCGGUCUGAUGAGUCCGUGAGGACGAAACAG | 0.672 |
| CCCGGAUGUGCUUUCCGGUCUGAUGAGUCCGUGAGGAAGAAACAG | 0.408 |
| ACCGGAUGUGCUUUCCGAUCUGAUGAGUCAGUGAGGACGAAACAG | 0.607 |
| ACCGGAUGUGCUUUCCGGUCUGCUGAGUCCGUGAGGACGAAACCG | 0.39 |
| ACCGGAUGUGCUCUCCGGUCUGAUGAGUCCGUGAGGACGAAACAA | 0.878 |
| ACCGGAUGUGCUUUCCGGUCUGAUGAGUUCGUGUGGACGAAACAG | 0.603 |

| Variant | self-cleavage |
| --- | --- |
| ACCCGAUGUGCAUUCCGGUCUGAUGAGUCCGUGAGGACGAAACAG | 0.766 |
| ACCGGAUGUGCUUUCCGGUCUGGUGAGUCCGUGAGGACGAAACAU | 0.297 |
| ACCGGAUGUGCUUUCCGGUUUGAUGAGUCCCUGAGGACGAAACAG | 0.489 |
| ACCGGACGUGCUUUCCGGUCUGAUGAGUCCGUGAGGACGAAACAC | 0.454 |
| ACCGGAUGUGCUUUCCGGUCUGAUGAGUCCCUGAGGACGCAACAG | 0.564 |
| ACCGGAUGUGCUUUCCGGUCUGAUGAGUCCGUUUGGACGAAACAG | 0.952 |
| ACCGGAUGUGCGUUCCGGUCUGAUGAGUCCGUGCGGACGAAACAG | 0.841 |
| GCCGGAUGUGCUUUCCGGUCUGAUGGGUCCGUGAGGACGAAACAG | 0.397 |
| ACCGGAUGUGCUUUCCGGUCUGAUGAAUCCGUGAGGACGGAACAG | 0.341 |
| ACCGGAUGUGCUUUCCGUUCUGAUGAGUCCGUGAGGAAGAAACAG | 0.527 |
| ACCGGAUGUGCUUUCCGGUCUGAUGAGUCCGUGAGGACAUAACAG | 0.291 |
| AUCGGAUGUGCUUUCCGGUCUGAUGAGUCCGUGAGGACGAAACAC | 0.868 |
| ACCGGAUGUGCUUUCCGGUCUGAUGACUCCGUGAUGACGAAACAG | 0.402 |
| ACCGGAUGUGCUUUCCGUUCUGAUUAGUCCGUGAGGACGAAACAG | 0.324 |
| ACCGGAUGUGCUUUCCUGUCCGAUGAGUCCGUGAGGACGAAACAG | 0.306 |
| GCCGGAUGUGCUUUCCGGUCUGAUGAGUCCGUGAGGACGACACAG | 0.461 |
| GCCGGAUGUGCUUUCCGCUCUGAUGAGUCCGUGAGGACGAAACAG | 0.58 |
| ACCGGAUGUGCUUUCCGGUCUGAUGAGUCCGUUAGGACGACACAG | 0.375 |
| ACCGGAUGUGCUUUCCGGUCUGAUGAGUCCGUCAGAACGAAACAG | 0.491 |
| ACCGGAUGUGCUUUCCGGUCUGAAAAGUCCGUGAGGACGAAACAG | 0.243 |
| ACCAGAUGUGCUUUCCGGUCUGAGGAGUCCGUGAGGACGAAACAG | 0.546 |
| ACCGGCUGUGCUUUCUGGUCUGAUGAGUCCGUGAGGACGAAACAG | 0.689 |
| ACCGGAUGUGCUUUCCGGUCCGAUGAGACCGUGAGGACGAAACAG | 0.573 |

| Variant | self-cleavage |
| --- | --- |
| ACCGUAUGUGCUUUCCGGUCUGAUGAGUCCGUGAGGGCGAAACAG | 0.46 |
| ACCGGAUGUGCUUUCCGGUCUGAAGAGUCCGUGAGGACGAAGCAG | 0.24 |
| ACUGGAUGUGCUUUCCGCUCUGAUGAGUCCGUGAGGACGAAACAG | 0.472 |
| ACCGGAUGUGCUAUCCGGUCUGAUGAGUCCGUGAGGAGGAAACAG | 0.728 |
| ACCGGAUGUGCUCUUCGGUCUGAUGAGUCCGUGAGGACGAAACAG | 1.03 |
| ACCGGAUGUGGUUUCCGGUCUGAUGAGUCCGUGGGGACGAAACAG | 1.06 |
| ACCGGAUGUGCUUUCCGGUCUGAUUAGUCCGUGCGGACGAAACAG | 0.317 |
| ACCGUAUGUGCUUUCCGGUAUGAUGAGUCCGUGAGGACGAAACAG | 0.292 |
| ACCGGAUGUGCUAUCCGGUCUGAUGAGUCCGUGAGGACGAAACAU | 1.02 |
| ACCGGAUGUGCUUUCCGGCCUGAUGAGUCCGUGAGGACAAAACAG | 0.282 |
| ACCGGAUGCGCUUUCCGGGCUGAUGAGUCCGUGAGGACGAAACAG | 0.525 |
| ACCGGAUGUGCUUUCCAGUCUGAUGAGUCCGUGAGGACGAACCAG | 0.341 |
| ACCGGAUGGGCUUUCCGGUCUGAUGAGUCCGUGAGGAUGAAACAG | 0.876 |
| ACCGGAUGUGCUUCCCGGUCUGAUGAGUCCGUGAGGACGAUACAG | 0.296 |
| ACCGGAUGUGCUUUCCGGUCUGAUGAGUCCGUGAGGACUAAACCG | 0.417 |
| ACCGGAUGUGCUUUUCGGUCUGAUGAGUCCGUGACGACGAAACAG | 0.601 |
| ACCGGAUGUGCUUUCCGGUCUAAUGAGUCCGUGAGGACCAAACAG | 0.385 |
| ACCGGAUGUGCUUUCCGGGCUGAUGAGUCCGUGAGGACGAAACAA | 0.424 |
| ACCGGAUGUGCUUUCAGGUAUGAUGAGUCCGUGAGGACGAAACAG | 0.474 |
| ACCGGAUGUGCUUUCCGCUCUGAUGCGUCCGUGAGGACGAAACAG | 0.354 |
| GACGGAUGUGCUUUCCGGUCUGAUGAGUCCGUGAGGACGAAACAG | 0.881 |
| ACCGGAUGUGCGUUCCGGUCUGAUGGGUCCGUGAGGACGAAACAG | 0.346 |
| ACCGGAUGUGCUUUCCGGUCUGAAGAGUUCGUGAGGACGAAACAG | 0.883 |

| Variant | self-cleavage |
| --- | --- |
| ACCGGAUUUGCUUUCCGGUCUGAUGAGUCCGUGACGACGAAACAG | 0.842 |
| ACCGGAUCUGCUUUCCGGUCUCAUGAGUCCGUGAGGACGAAACAG | 0.339 |
| ACCGGAUCUGCUUUCCGGUCAGAUGAGUCCGUGAGGACGAAACAG | 0.784 |
| ACCGGAUGUGCUGUCCGGUCUGAUGAGUCCGUGAGCACGAAACAG | 0.709 |
| ACCGGUUGUGCUCUCCGGUCUGAUGAGUCCGUGAGGACGAAACAG | 1.02 |
| ACCGGACGUGCUUUCCGGUCUAAUGAGUCCGUGAGGACGAAACAG | 0.387 |
| ACCGGAUGUGCUUUCCGGUCUGAUGAGUCCGUCAGGACGCAACAG | 0.566 |
| ACCGGAUGUGCUCUCCGGUCUGAUGAUUCCGUGAGGACGAAACAG | 0.673 |
| ACCGGAUGUGCUUUCCGGUCUGAUGAGUCCGUGAGGAAAAAACAG | 0.325 |
| ACCAGAUGUGCUUUCCGGUUUGAUGAGUCCGUGAGGACGAAACAG | 0.358 |
| ACCGGAUGUGCUUUCCGGUCUGAGGAGUCCGUGAGGACGAGACAG | 0.308 |
| ACCGGAUGUGCUUUCCGGUCUGAUGAGACCGUGAGGUCGAAACAG | 0.895 |
| ACCGGAUGUGCCUUCCGGUCUGAUGAGUCCGUGAGGACGAAAGAG | 0.305 |
| UCCGGAUUUGCUUUCCGGUCUGAUGAGUCCGUGAGGACGAAACAG | 0.728 |
| ACCGGGUGUGCUUUCUGGUCUGAUGAGUCCGUGAGGACGAAACAG | 0.762 |
| ACGGGAUGUGCUUUCGGGUCUGAUGAGUCCGUGAGGACGAAACAG | 0.258 |
| ACCGGAUGCGCUUUCCGGUCUGAUGAGUCCGUUAGGACGAAACAG | 1.24 |
| ACCGGAUGUGCUUUCCGGUCUUAUGAGUCCGUGAGGACGAAUCAG | 0.36 |
| ACCGGAUGUGCUAUCCGGUCUGAUGAGUCCGUGAGGACGAAACUG | 0.749 |
| ACCGGAUGUGCUUGCCGGUCUGAUGAGUCCGUGAGGACGAAAGAG | 0.416 |
| ACCGGAUGUGCUUUCCGGUCUGAUGACUCCGUGAGGUCGAAACAG | 0.479 |
| ACCGGAUGUGCUUUCCGGUCUGAUGAGUCCGUGAAGACGAGACAG | 0.328 |
| ACCCGAUGUGCUUUCCGGUCUGAUGAGUCCAUGAGGACGAAACAG | 0.939 |

| Variant | self-cleavage |
| --- | --- |
| ACAGGAUGUGCUUUCCGGUCUGAAGAGUCCGUGAGGACGAAACAG | 0.811 |
| ACCGGAUGUGCUUUCCGGUCUGAUGAGUCCGUGAGGACGGAAGAG | 0.358 |
| ACCGGAUGUGCUUUCCGAUCUGAUGAGUUCGUGAGGACGAAACAG | 0.574 |
| ACCGGAUGUGCUUUCCGGUCUUAUGAGUCCAUGAGGACGAAACAG | 0.397 |
| ACCGGAUGUGCUUUCCGGUUUGGUGAGUCCGUGAGGACGAAACAG | 0.356 |
| ACCGGAUGUGCUUUCCGGUCUGAUGUGUCCGUGAGUACGAAACAG | 0.446 |
| ACCGGAUGUGCUUUCCGGUCUGAUGAGGCCGUGAGGACGAAGCAG | 0.264 |
| ACCGGAUGGGCUUUCCGGUCUGCUGAGUCCGUGAGGACGAAACAG | 0.448 |
| ACCGGAUGUGCUUUGCGGUCUGAUGAGUCCGUGAGGACGUAACAG | 0.358 |
| ACCGGAUGUGCUUCCCGGUCUGAUGGGUCCGUGAGGACGAAACAG | 0.359 |
| ACCGGAUGUGCUUUCCGGUCUGAUGAGUCCGGGAGGACGAAACUG | 0.477 |
| ACCGGAUGUGCUUUCCGGUCUGAUGAGUCCGUGAAGACGAAUCAG | 0.29 |
| ACCGGAUGUGCUUUCCGUUCUGAUGAGUCCGUGAGGCCGAAACAG | 0.567 |
| ACCAGAUGUGCUUUCCGGUCUGAUGAGUCCGUGAGGACCAAACAG | 0.319 |
| ACCGGAUGUACUUUCCGGUCUGACGAGUCCGUGAGGACGAAACAG | 0.932 |
| ACCGGAUGUGCUUUCAGGUCUGAUGAGUCCGUGAGGACGACACAG | 0.404 |
| ACCGGAUGUGCUUUCAGGUCUGAUGAGUCCGUGAGGACGAUACAG | 0.37 |
| ACCGGAUGUGCUUUCCGGUCUCAUGAGUCCGUGCGGACGAAACAG | 0.283 |
| ACCGGUUGUGCUUUCCGGUCUGAGGAGUCCGUGAGGACGAAACAG | 0.642 |
| ACCGGAUGUGCCUUCCGGUCUGAUGAGUCCGUGAUGACGAAACAG | 0.834 |
| ACCGGAUGAGCUUUCCGGUCUGAUGAGUCCGAGAGGACGAAACAG | 0.964 |
| ACCGGAUGUGCUUUCCGGUCUGAUGAGUCCGAGAGGAUGAAACAG | 0.915 |
